Test results from paper PMC2828547, “UIF, a New mRNA Export Adaptor that Works Together with REF/ALY, Requires FACT for Recruitment to mRNA” (Current Biology, 2009).

Biological target: T1, GST-UAP56 (UniProt Q13838 1-428)
T1 construct: UAP56
Assay: pull-down; GST fusion proteins with purified UIF in the presence of RNase; Coomassie staining
Details: both partners purified

T1 sequence (Q13838 whole entry): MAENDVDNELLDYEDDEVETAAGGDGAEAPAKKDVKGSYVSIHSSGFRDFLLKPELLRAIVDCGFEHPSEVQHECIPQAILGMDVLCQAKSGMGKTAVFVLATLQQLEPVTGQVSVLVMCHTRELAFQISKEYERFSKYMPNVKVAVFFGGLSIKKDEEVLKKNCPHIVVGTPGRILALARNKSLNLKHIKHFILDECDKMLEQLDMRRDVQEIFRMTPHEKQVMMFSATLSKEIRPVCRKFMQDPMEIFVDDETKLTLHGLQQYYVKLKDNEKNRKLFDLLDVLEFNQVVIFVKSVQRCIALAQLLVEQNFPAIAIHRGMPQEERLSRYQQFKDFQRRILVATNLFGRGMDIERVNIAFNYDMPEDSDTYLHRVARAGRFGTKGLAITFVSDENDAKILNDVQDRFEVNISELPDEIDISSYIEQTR

binding result: binds
B1: purified UIF (recombinant) (natural protein, human, UniProt Q96QD9 1-318, looked up)
chain: MNRFGTRLVGATATSSPPPKARSNENLDKIDMSLDDIIKLNRKEGKKQNFPRLNRRLLQQSGAQQFRMRVRWGIQQNSGFGKTSLNRRGRVMPGKRRPNGVITGLAARKTTGIRKGISPMNRPPLSDKNIEQYFPVLKRKANLLRQNEGQRKPVAVLKRPSQLSRKNNIPANFTRSGNKLNHQKDTRQATFLFRRGLKVQAQLNTEQLLDDVVAKRTRQWRTSTTNGGILTVSIDNPGAVQCPVTQKPRLTRTAVPSFLTKREQSDVKKVPKGVPLQFDINSVGKQTGMTLNERFGILKEQRATLTYNKGGSRFVTVG
notes: it may be the GB1-6His-UIF of m18; also called recombinant UIF
